Data: publication PMC3460626

Molecular target: T1, LasR (Pseudomonas aeruginosa PA14?) (UniProt A0A0H2Z901)
T1 sequence: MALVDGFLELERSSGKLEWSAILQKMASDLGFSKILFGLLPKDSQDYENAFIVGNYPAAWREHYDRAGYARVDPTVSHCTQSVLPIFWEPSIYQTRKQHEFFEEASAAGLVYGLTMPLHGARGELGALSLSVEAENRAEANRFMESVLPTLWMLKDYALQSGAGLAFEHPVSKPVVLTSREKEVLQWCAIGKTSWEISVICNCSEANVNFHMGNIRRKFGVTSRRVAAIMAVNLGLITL
Assay: EMSA
Conditions: LasR EMSA: 20 mM Tris-HCl pH 7.5, 50 mM KCl, 1 mM EDTA, 1 mM DTT, 100 ug/ml BSA, 10% glycerol, room temp 20 min, 1 pM each specific and nonspecific probe

| Sequence | binding |
| --- | --- |
| GTCCGAATTCTGGATCGTTTCGTCACAGGAAACGCTGGAGCGCCTATTCCAGAGCGCTTCGAACAATCGGTAAAAATAAAATCCAAATAATCAGACGCAGTTCAAAAACAACCAGAACAGATAGTTTTTCCGCCTTTCCCAACATGCTCCTCTCGCCTTGACTCGTTCGATGCAGCGGATCGCCCATGCGTATGTCCGGCATTGGATCCGGAC (double strand) [PA14_07430 promoter] | binds |
| GTCCGGATCCGTTGAAGAGTGAAGCCTTTGGGGGAAGGGCCGCCGCGGCGGAATCCAATCCTTCATGTTGCCAGCTTTGGCAGAGGGATGGGGCCGGCGGCGGTTCGCCTTCCTATGTCAGTTTGTCGCAGCGGGCCGGCCCGCCGCGGTTCAGGACCTGTCGCTGGCGGCGATCTTCGCGAATTCGGAC (double strand) [PA14_23220 promoter] | no binding |
| GTCCGAATTCGGCGGCCCTTTGCCTGCCTCTACCGGCTCACAGTGCGGGTGCCGACCGCTTTGCATTCCGCGACATCCATCAGGAGTGGGTAGCGAATCTGACCGGCCCGTCACATTTGGTAGGGACCTCAAACCGGCACCGAGGGCTAGGATCAGCCCGCTTCGAAATGAATCCGGTTCTGGAAAGGATCCGGAC (double strand) [PA14_53250 (cbpD) promoter] | binds |
| GTCCGGATCCAGTCGCACGGCGACTGCGCCGCCCCCATGGGCGCGGCGAGTCTCTCATCGGACTGAAGGGAGATTATTGGCGAGAGGACTGCGGCGGATAACCTGGCAGAACTGAACGTATCGTTGAATGGAATTCAACGATACCCAAGCCGGGCGGGAATCGCCCGGGCGAGGCCGCGTTCCCGGTGGCCCGCTCCTCGCCGCTAAGCTTGGAC (double strand) [PA14_33890 promoter] | binds more weakly |
| GTCCGAATTCCTTCTGATGCCGGCGCGGGCGCCCGGCCGGTATGGCCGGCAAGCCCGTCGACGGCTGTCCAGCTACCAGATCCGGTAGCCCTGCCAGATTTCGCAGGCGACCAGATCTGGCAGGTTGTTGGGCTCCCGGTGCCATGCAACCTATTACGCCTCTCGCCCCCCACCCGTTCGCGCAGGATCCGGAC (double strand) [PA14_37745 promoter] | binds |
| GTCCGGATCCCGAGGCTCTCCAGAGGAATCCACTGTTGTCTGCCTTATTTTTTATAAATTGTTAACTACCTGTTTTGGTAGGGTTTTCCAAATGGCCATCAATGTCGTTATGATGGCTATAGCCAAGCCGTAAAGGGCATGGACGCAGACGCCTGACGTTTGGCTGAAAATCTTTCATTGGAATTCGGAC (double strand) [lrs2 promoter] | binds |
| GTCCGAATTCTTGTTCTATATGTTCGAACTTGGCTTTGCTCGTTGTTTTAATTTTGCGGAATAACCTCTGGAACTATTCATATGAATTTTTGAAAGTTTGGTTTACCTGAGAGATTTATGAGTTGACCTTGTCACGATGGCAGGACTCATGGTTCGCAGGAGTCAACAAACCAGGATCCGGAC (double strand) [PA14_18800 promoter] | binds |
| GTCCGAATTCGTGGAGGATCGCGTCGCGCAGCTGGCGATAGAGCTGGCCGACCAGGTCGTGGCGGCCGTCGAGGATCAGTTGCAGTTCCATGGCGAAATTGGCTACCTGGTATTTCTGGTAATTGGCTCTTCGTGGAAGCCAAAGGCAGGCTTAGTGTTACCCCATGCCGCGCCGCTTTCCACTCTCGCGGCTGCCAATCAGCCGGATCCGGAC (double strand) [PA14_03490 promoter] | binds |
| GTCCGGATCCGTCCGAACCCATGAGATGGCAAACCAATGACAACCCACTTTGCTCGGCAAATCGCCTCCCAGATCTCACAGTTCGAGGCGCTCGGCCTGGGCTCCACGGGGGCGACGGCATGCCTGGAAGCGAGCGGCCATCCATCGGGCCGATAGCGCTCCACCCCGTCTCGCCTGCCAGAATTCGGAC (double strand) [lrs1 promoter] | binds |
| GTCCGGATCCGTCTACCGCAGGGCATTCCGGCGTTTGTCGCGATCAGGGCGGGGGCATGGTTGCAGAGACGGCGGAAGGCTTCACCTACCACAATTGGCAGAGTCGCGGCGGCGATGCTCCGCGCCGGGTTCAACCGGCTTCGCTGAGTTCGGCGACCACCACTCCGGGAAGGTCTTTCAGCAGTGCCGGGGACAGCAGGAATTCGGAC (double strand) [PA14_34870 promoter] | binds |
| GTCCGAATTCCCGGGAAGCGCCCTGTGACGGACTTCGAATCCTTGCGTCGCGCTCCGTCCTCCGGATTGAGCGGCGCGCTGCGGCGGCCGCGCTCCGGCGCAGCGCCACTGCCAGATCTGGCAGTTGTCGCTGGCGGGGACGGAGGTTTTAGTAGCCGCACTTTTTTCCAGGGCCGGGCAGTGGATCCGGAC (double strand) [PA14_40310 promoter] | binds |
| GTCCGGATCCTTCCGTGAAGTGTTTCAAATAGCCAGCATCCCTGGTCGCTGATGTGGATTGCATAAAACACAGAACGCTCGTACCGGCTCAACTACAAGATCTGGTAGGTGCCAGACAGGGTATGCGGGATTGCTAAGCTGATGCTTCCTGCAATGCCGGAGGTTGTAGCCAAGTTGTAATTTTATTCTTTCGGTACGCAGGAAAGAATTCGGAC (double strand) [PA14_09480 (phzA1) promoter] | binds |
| GTCCGAATTCGCGGCTGAATCCGGCTGGGCAGCTGGCGATCATATCGCCAGCCACCCTGCTGGCCCCCGGCGCAGAGCGGCGCGGCTATGCTCGTGCGCCCGGAACGGCCCTATCCGTTCTGGGAGCTACCCCCTCGCCACCCTCGACTAGCATGACCAGGGAGGCCCGCAGTGGACGCCCAGGGCTAGGAGCCGCAGGCGGATCCGGAC (double strand) [PA14_41500 promoter] | binds |
| GTCCGAATTCGCAATGGCAGACCTTGCCGTTCAGCGACAGGCAGATCGACGCCGACCCGCAACTGCAACGGCTAAGCATTCGCGAATGATAAGCAATGCCTATCAGATCTGATGGGAAAAAAACTGACGGTTTTTCCGCGCTCGTTCGTCTTTAACCATAGAGGCGGCCCACAGCCGCCCGGTTCCAGGGAACACGTGCAGGATCCGGAC (double strand) [PA14_33830 promoter] | binds |
| GTCCGAATTCCCGTGCTACCCCCGGCAGGCGTAGCCGCGGCAGCCTGCCTCGGCAAAAAGCCATCAGCCGGCGCGCTTCGACGCCCCTCATACCGCCCTTTCGCCAACTACCAATTCTCATAGTTGTGAGGGGAAATTTGTATCTTATTTTAAATACCCACGAAACATATAAAAACACACACAGCGAAACACTTCGGAAACCGGATCCGGAC (double strand) [PA14_48530 promoter] | binds |
